Results on two substances are retold here after publication PMC3823011.

The target in assay [1] is CmTic110B (Cyanidioschyzon merolae 10D). The assay can be described thus: SEC + other: small-angle X-ray scattering.
In assay [2] the target is CmTic110C (Cyanidioschyzon merolae 10D). The assay can be described thus: SEC + other: small-angle X-ray scattering.

The term stoichiometry N denotes a count of units in the complex or per binding partner.

As to CmTic110B (domain or fragment), the stoichiometry N in assay [1] came out at 2.
Turning to CmTic110C (domain or fragment), the stoichiometry N in assay [2] is 2.
